Common to all, as to test: high-throughput RNA pulldown from lysate on Ni-NTA beads; HRP: 50 mM Tris pH 8, 150 mM NaCl, 1 mM beta-mercaptoethanol, 50 ug/ml BSA, 3 ug/ml yeast RNA, 0.5% heparin; ITC and FP: Tris pH 8, 200 mM KCl, 5% glycerol; MST: 50 mM Tris pH 8, 200 mM NaCl, 1 mM DTT, BSA, heparin, 0.05% Tween 20
Holding throughout (conditions): tags: N-terminal His-eGFP

In data set [1] the target is T1, GFP-9S library array, motif 4 ND N98E;D124I (synthetic construct, N98E;D124I).
T1 chain: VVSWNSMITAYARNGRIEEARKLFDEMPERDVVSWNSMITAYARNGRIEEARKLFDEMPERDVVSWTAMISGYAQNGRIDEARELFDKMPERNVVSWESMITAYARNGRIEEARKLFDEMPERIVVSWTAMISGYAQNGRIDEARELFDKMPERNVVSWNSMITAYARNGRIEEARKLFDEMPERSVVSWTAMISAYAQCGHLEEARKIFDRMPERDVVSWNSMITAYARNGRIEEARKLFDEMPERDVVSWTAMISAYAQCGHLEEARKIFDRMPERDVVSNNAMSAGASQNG

The target in data set [2] is T2, GFP-9S library array, motif 4 ND N98T (synthetic construct, N98T).
T2 chain: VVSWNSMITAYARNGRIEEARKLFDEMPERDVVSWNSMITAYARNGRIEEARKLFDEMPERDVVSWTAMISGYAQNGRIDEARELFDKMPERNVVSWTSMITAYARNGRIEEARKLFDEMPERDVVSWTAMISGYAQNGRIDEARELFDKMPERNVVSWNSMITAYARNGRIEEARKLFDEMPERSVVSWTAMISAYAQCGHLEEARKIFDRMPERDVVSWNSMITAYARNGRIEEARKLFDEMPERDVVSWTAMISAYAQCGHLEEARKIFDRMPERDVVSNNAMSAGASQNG

Data set [3] has as its target T3, GFP-9S library array, motif 4 ND N98A;D124W (synthetic construct, N98A;D124W).
T3 chain: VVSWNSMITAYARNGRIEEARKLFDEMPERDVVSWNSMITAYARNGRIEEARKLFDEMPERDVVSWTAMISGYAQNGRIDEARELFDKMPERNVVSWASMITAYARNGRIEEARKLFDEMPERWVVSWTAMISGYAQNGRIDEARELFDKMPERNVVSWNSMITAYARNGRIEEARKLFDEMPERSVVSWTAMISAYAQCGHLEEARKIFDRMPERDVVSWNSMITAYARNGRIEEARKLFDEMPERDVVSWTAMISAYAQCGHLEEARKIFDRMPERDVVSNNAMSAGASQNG

Data set [4] concerns the target T4, GFP-9S library array, motif 4 ND N98Q;D124I (synthetic construct, N98Q;D124I).
T4 chain: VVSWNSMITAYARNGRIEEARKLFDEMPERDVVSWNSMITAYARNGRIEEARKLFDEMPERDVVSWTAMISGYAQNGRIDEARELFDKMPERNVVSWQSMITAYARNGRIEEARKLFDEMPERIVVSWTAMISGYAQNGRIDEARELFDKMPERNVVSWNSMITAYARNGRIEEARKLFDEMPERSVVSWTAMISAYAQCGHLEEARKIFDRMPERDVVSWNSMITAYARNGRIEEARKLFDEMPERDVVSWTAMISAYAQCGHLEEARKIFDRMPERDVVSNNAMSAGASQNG

The target in data set [5] is T5, GFP-9S library array, motif 4 ND (synthetic construct).
T5 chain: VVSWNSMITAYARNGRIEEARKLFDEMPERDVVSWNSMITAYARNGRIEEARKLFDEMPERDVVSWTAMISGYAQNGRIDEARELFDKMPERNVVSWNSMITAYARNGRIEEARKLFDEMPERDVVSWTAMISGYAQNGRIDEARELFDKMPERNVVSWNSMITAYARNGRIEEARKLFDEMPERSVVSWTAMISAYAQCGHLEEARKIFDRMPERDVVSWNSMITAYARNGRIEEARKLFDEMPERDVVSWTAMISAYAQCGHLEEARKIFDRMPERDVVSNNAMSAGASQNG

Among the data in article PMC8809517, “Cofactor-independent RNA editing by a synthetic S-type PPR protein” are Kd values, retold here.

Take AUUAUACGUGA (ssRNA) [IR-rpoA-U]: the Kd in data set [1] (label: 5' IRDye 800CW) is 4.07 µM; in data set [2] (label: 5' IRDye 800CW) it was 23 nM; in data set [3] (label: 5' IRDye 800CW), 149 nM; in data set [4] (label: 5' IRDye 800CW) it was 344 nM; in data set [5] (label: 5' IRDye 800CW) it was 6.27 nM.

Turning to AUUAGACGUGA (ssRNA) [Cy5-rpoA-G], the Kd in data set [1] (label: 5' Cy5) was found to be 3.86 µM; in data set [2] (label: 5' Cy5) it was 5.06 nM; in data set [3] (label: 5' Cy5) it was 104 nM; in data set [4] (label: 5' Cy5) it was 102 nM; in data set [5] (label: 5' Cy5) it was 276 nM.

AUUACACGUGA (ssRNA) [Cy5-rpoA]: the Kd in data set [1] (label: 5' Cy5) is 4.24 µM; in data set [2] (label: 5' Cy5), 97.5 nM; in data set [3] (label: 5' Cy5), 129 nM; in data set [4] (label: 5' Cy5) it was 142 nM; in data set [5] (label: 5' Cy5) it was 19 nM.

Regarding AUUAAACGUGA (ssRNA) [IR-rpoA-A], the Kd in data set [1] (label: 5' IRDye 800CW) worked out at 5.14 µM; in data set [2] (label: 5' IRDye 800CW), 91.7 nM; in data set [3] (label: 5' IRDye 800CW), 138 nM; in data set [4] (label: 5' IRDye 800CW), 315 nM; in data set [5] (label: 5' IRDye 800CW) it was 86.8 nM.

One may read the Kd as the constant that tells how readily two partners part at equilibrium. Lower therefore signals a tighter complex.
